Here are results for 39 molecules from US20260151519A1 (AKTIS ONCOLOGY, published 2026).

As a reminder, the Kd is the equilibrium constant for the complex coming apart. A higher Kd goes with weaker binding.

Bridges are numbered along the chain shown (N, C = ends). Primed or numbered codes have the meaning given here. Where no end group is shown, it is not given here. The star is where a group is joined. Biotin = O=C1N[C@H]2[C@H](CS[C@H]2CCCCC(=O)*)N1; PEG4″ = 4(ethylene glycol)

For this test, the target named is T1, Human Nectin-4 (human, UniProt Q96NY8 32-349, limits assumed).
T1 construct: Protein immobilised on the SPR chip; also called target protein
T1 sequence: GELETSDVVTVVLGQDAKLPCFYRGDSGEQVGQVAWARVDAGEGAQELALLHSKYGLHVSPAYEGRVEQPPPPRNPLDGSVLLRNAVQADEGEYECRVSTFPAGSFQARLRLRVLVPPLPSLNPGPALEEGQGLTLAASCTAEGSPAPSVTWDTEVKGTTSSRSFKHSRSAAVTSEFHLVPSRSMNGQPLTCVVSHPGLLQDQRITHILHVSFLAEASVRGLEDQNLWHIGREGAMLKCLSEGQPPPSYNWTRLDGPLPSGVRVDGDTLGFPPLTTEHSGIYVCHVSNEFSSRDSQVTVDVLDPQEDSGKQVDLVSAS
Kind of test: Table 2B (DELFIA or SPR).

Molecule {Biotin-PEG4″}-CEYDEEFFTALKRLRGGDICEYIQASFQYLPGLCIEEILDNLGCS-OH (designed binder, disulfide 1-34, 20-44) [C178] registered a Kd of 1.4 nM. For Ac-CEYDEEFFTALKRLRGGDICYYIQASFQYLPGLCIEEILDNLGCS (designed binder, disulfide 1-34, 20-44) [C108] the value was 5.78 nM; for {Biotin-PEG4″}-CEYDEEFFTALARLRGGDICDYIQAKFQYLPGLCIAEILDNLGCS-OH (designed binder, disulfide 1-34, 20-44) [C157], 1.1 nM. Take {Biotin-PEG4″}-CEYDEEFFTALARLRGGDICYYIQAYFQYLPGLCIEEILDNLGCS-OH (designed binder, disulfide 1-34, 20-44) [C165]: the Kd amounted to 4.1 nM. {Biotin-PEG4″}-CEYDEEFFTALARLRGGDICYYIQAKFQYLPKLCIEEILDNLGCS-OH (designed binder, disulfide 1-34, 20-44) [C166]: binding was put at a Kd of 0.75 nM. For {Biotin-PEG4″}-CEYDEQFFTALARLRGGDICYYILAKFQYLPQLCIEEILDNLGCS (designed binder, disulfide 1-34, 20-44) [C152] the value was 0.85 nM. Molecule {Biotin-PEG4″}-CEYDEQFFTALARLRGGDICEYIQAKFQYLPGLCIEEILDNLGCS (designed binder, disulfide 1-34, 20-44) [C146] displayed a Kd of 0.54 nM. Next, {Biotin-PEG4″}-CEYDEEFFTALARLRGGDICYYIQAYFQYLPGLCIEEILDNLGCS-OH (designed binder, disulfide 1-34, 20-44) [C174]: 4.1 nM; Ac-CEYDEEFFTALARLRGGDICYYIQAKFQYLPGLCIEEILDNLGCS (designed binder, disulfide 1-34, 20-44) [C124]: 1.1 nM; {Biotin-PEG4″}-CEYDEEFFTALARLRGGDICSYIQAKFQYLPKLCIEEILDNLGCS (designed binder, disulfide 1-34, 20-44) [C168]: 0.9 nM. {Biotin-PEG4″}-CEYDEEFFTALARLRGGDICYYILAKFQYLPGECIEEILDNLGCS (designed binder, disulfide 1-34, 20-44) [C145] showed a Kd of 1.3 nM.

{Biotin-PEG4″}-CEYDEEFFTALKRLRGGDICYYIQASFQYLPGLCIEEILDNLGCS (designed binder, disulfide 1-34, 20-44) [C111]: the affinity, expressed as Kd, was 4.32 nM. {Biotin-PEG4″}-CEYDEEFFTALARLRGGDICYYIQAKFQYLPGLCIEEILDNLGCS (designed binder, disulfide 1-34, 20-44) [C127] displayed a Kd of 1.27 nM. For the molecule {Biotin-PEG4″}-CEYDEEFFTALASLRGGDICYYIQAKFQYLPGLCIEEILDNLGCS-OH (designed binder, disulfide 1-34, 20-44) [C161], binding was put at a Kd of 7.5 nM. For {Biotin-PEG4″}-CEYDEEFFTALKRLRGDDICYYIQASFQYLPGLCIEEILDNLGCS-OH (designed binder, disulfide 1-34, 20-44) [C180] the value was 2.7 nM. For the molecule {Biotin-PEG4″}-CEYDEEFFTALARLRGGDICEYIQAKFQYLPGLCIQEILDNLGCS (designed binder, disulfide 1-34, 20-44) [C148], the Kd stood at 0.82 nM. Turning to {Biotin-PEG4″}-CEYDEAFFTALARLRGGDICQYIQAKFQYLPGLCIEEILDNLGCS-OH (designed binder, disulfide 1-34, 20-44) [C151], the equilibrium dissociation constant (Kd) is 0.68 nM.

In turn, {Biotin-PEG4″}-CEYDEEFFTALKRLRGGDICYYIQKAFQYLPGLCIEEILDNLGCS (designed binder, disulfide 1-34, 20-44) [C123] had a Kd of 1.43 nM. Consider Ac-CEYDEEFFTALKRLRGGDICYYIQKAFQYLPGLCIEEILDNLGCS (designed binder, disulfide 1-34, 20-44) [C120], for which the Kd came to 2.11 nM.

Molecule {Biotin-PEG4″}-CEYDEEFFTALKRLRGGDICSYIQASFQYLPGLCIEEILDNLGCS-OH (designed binder, disulfide 1-34, 20-44) [C179] showed a Kd of 1.8 nM. As to Ac-CEYDEEFFTALKRLRGGDICYYIQAKFQYLPKLCIEEILDNLGCS (designed binder, disulfide 1-34, 20-44) [C116], the Kd came to 0.78 nM. For the molecule {Biotin-PEG4″}-CEYDEEFFTALARLRGGDICYYIQAKFQYLPGECIEEILQNLGCS-OH (designed binder, disulfide 1-34, 20-44) [C142], binding was put at a Kd of 0.81 nM. For {Biotin-PEG4″}-CEYDEEFFTALARLRGGDICEYIQAKFQYLPKLCIEEILDNLGCS-OH (designed binder, disulfide 1-34, 20-44) [C167], binding was put at a Kd of 1.2 nM. {Biotin-PEG4″}-CEYDGEFFTALARLRGADICEYIQAKFQYYPGLCIEEILDNLGCS-OH (designed binder, disulfide 1-34, 20-44) [C144] displayed a Kd of 3.7 nM. For {Biotin-PEG4″}-CEYDEEFFTALARLRGGDICQYIQAKFQYLPALCIEEILDNLGCS (designed binder, disulfide 1-34, 20-44) [C153] the value was 0.56 nM; for {Biotin-PEG4″}-CEYDEEFFTALSRLRGGDICYYIQQAFQYLPGLCIEEILDNLGCS (designed binder, disulfide 1-34, 20-44) [C135], 5.42 nM; for {Biotin-PEG4″}-CEYDEEFFTALARLRGGDICEYIQAKFQYLEGLCIEEILDNLGCS-OH (designed binder, disulfide 1-34, 20-44) [C150], 1 nM. {Biotin-PEG4″}-CEYDEEFFTALARLRGADICYYIQAKFQYLPGDCIEEILDNLGCS (designed binder, disulfide 1-34, 20-44) [C140] had a Kd of 1.1 nM. {Biotin-PEG4″}-CEYDGEFFTALARLRGGDICQYIQAKFQYLPGLCIEEILDNLGCS-OH (designed binder, disulfide 1-34, 20-44) [C158] showed a Kd of 1.1 nM. The molecule {Biotin-PEG4″}-CDYDEEFFTALARLRGGDICEYIQAKFQYLPGLCIEEILDNLGCS (designed binder, disulfide 1-34, 20-44) [C141] came in with a Kd of 0.64 nM.

On to {Biotin-PEG4″}-CEYDEEFFTALARLRGGDICDYIQAKFQYLPKLCIEEILDNLGCS (designed binder, disulfide 1-34, 20-44) [C169], for which binding was put at a Kd of 0.74 nM. {Biotin-PEG4″}-CEYDEEFFTALKRLRGGDICYYIQASFQYLPGECIEEILDNLGCS-OH (designed binder, disulfide 1-34, 20-44) [C177] came in with a Kd of 2 nM. In the case of {Biotin-PEG4″}-CEYDEEFFTALAQLRGGDICYYIQAKFQYLPGLCIEEILDNLGCS-OH (designed binder, disulfide 1-34, 20-44) [C162], the affinity, expressed as Kd, was 8.8 nM. Consider {Biotin-PEG4″}-CEYDEEFFTALARLRGADICDYIQAKFQYLPGLCIEEILDNLGCS (designed binder, disulfide 1-34, 20-44) [C147], for which the Kd was 0.69 nM. On to {Biotin-PEG4″}-CEYDEEFFTALARLRGSDICLYIQAKFQYLPGLCIEEILDNLGCS-OH (designed binder, disulfide 1-34, 20-44) [C156], for which binding was put at a Kd of 1.1 nM. Consider {Biotin-PEG4″}-CEYDEEFFTALARLRGGDICQYIQAKFAYVPGLCIEEILDNLGCS-OH (designed binder, disulfide 1-34, 20-44) [C155], for which binding was put at a Kd of 1.1 nM. {Biotin-PEG4″}-CEYDEEFFTALARLRGGDICYYIQAKFAYLPALCIEEILDNLGCS (designed binder, disulfide 1-34, 20-44) [C154] came in with a Kd of 0.94 nM. {Biotin-PEG4″}-CEYDEQFFTALKALRGGDICYYIQASFNYLPDLCIEEILDNLGCS (designed binder, disulfide 1-34, 20-44) [C115] registered a Kd of 6.46 nM. Next, {Biotin-PEG4″}-CEYDEEFFTALKRLRGGDICYYIQAKFQYLPKLCIEEILDNLGCS (designed binder, disulfide 1-34, 20-44) [C119]: 0.95 nM.
